Measured values: publication PMC6358683 (Proceedings of the National Academy of Sciences of the …, 2019)

How the values were obtained:
Test in all cases: ELISA
[1] = target: HA of A/Thailand/CU44/2006 (Influenza A virus A/Thailand/CU44/2006 …, UniProt A7LI25, strain)
HA of A/Japan/305+/1957 = HA of A/Japan/305+/1957 (Influenza A virus A/Japan/305/1957 …, UniProt P03451)
HA of A/Hong Kong/1/1968 = HA of A/Hong Kong/1/1968 (influenza A virus A/Hong Kong/1/1968 …, UniProt Q91MA7)
[2] = target: HA of A/Solomon Islands/03/2006 (Influenza A virus A/Solomon …, UniProt A7Y8I1, strain)

Measured: binding result

B1: C05 WT (antibody, V domains shown)
VH: QVQLQESGGGLVQPGESLRLSCVGSGSSFGESTLSYYAVSWVRQAPGKGLEWLSIINAGGGDIDYADSVEGRFTISRDNSKETLYLQMTNLRVEDTGVYYCAKHMSMQQVVSAGWERADLVGDAFDVWGQGTMVTVSS
VL: DIQLTQSPSSLSASVGDRVTLTCQASQDIRKFLNWYQQKPGKGPKLLIYDASNLQRGVPSRFSGGGSGTDFTLIISSLQPEDVGTYYCQQYDGLPFTFGGGTKVVIK
binds: [1] | HA of A/Japan/305+/1957 | HA of A/Hong Kong/1/1968 | [2]
